{"source": "paper PMC7320910", "about": "(Nature microbiology, 2020)", "proteins": {"B1": {"name": "FliF (flagellar MS-ring protein) from Salmonella enterica serovar Typhimurium (natural protein)", "chain": "MSATASTATQPKPLEWLNRLRANPRIPLIVAGSAAVAIVVAMVLWAKTPDYRTLFSNLSDQDGGAIVAQLTQMNIPYRFANGSGAIEVPADKVHELRLRLAQQGLPKGGAVGFELLDQEKFGISQFSEQVNYQRALEGELARTIETLGPVKSARVHLAMPKPSLFVREQKSPSASVTVTLEPGRALDEGQISAVVHLVSSAVAGLPPGNVTLVDQSGHLLTQSNTSGRDLNDAQLKFANDVESRIQRRIEAILSPIVGNGNVHAQVTAQLDFANKEQTEEHYSPNGDASKATLRSRQLNISEQVGAGYPGGVPGALSNQPAPPNEAPIATPPTNQQNAQNTPQTSTSTNSNSAGPRSTQRNETSNYEVDRTIRHTKMNVGDIERLSVAVVVNYKTLADGKPLPLTADQMKQIEDLTREAMGFSDKRGDTLNVVNSPFSAVDNTGGELPFWQQQSFIDQLLAAGRWLLVLVVAWILWRKAVRPQLTRRVEEAKAAQEQAQVRQETEEAVEVRLSKDEQLQQRRANQRLGAEVMSQRIREMSDNDPRVVALVIRQWMSNDHE"}}, "target": "the molecule itself", "experiment": "cryo-EM structure", "note": "“And” between values parts separate entries of the source, which are not always exact repeats. Equal values may be shown once.", "data": [{"protein": "B1", "values": [{"measurement": "stoichiometry N", "result": "33 and 34 and 32 and 35"}]}]}
